Laboratory results published in ChEMBL document CHEMBL1145505, “Bisphosphonates target multiple sites in both cis- and trans-prenyltransferases” (Proc Natl Acad Sci U S A, 2007).

Key:
[1] = substrate: CC(C)=CCC/C(C)=C/CC/C(C)=C/COP(=O)(O)OP(=O)(O)O; test: Activity at Saccharomyces cerevisiae GGPPS
[2] = substrate: CC(C)=CCC/C(C)=C/CC/C(C)=C/COP(=O)(O)OP(=O)(O)O; test: Activity at human GGPPS

Row | Protein | Km [1] | Km [2]
1 | Geranylgeranyl pyrophosphate synthase BTS1 (Saccharomyces cerevisiae S288c), Q12051 (protein) MEAKIDELINNDPVWSSQNESLISKPYNHILLKPGKNFRLNLIVQINRVMNLPKDQLAIVSQIVELLHNSSLLIDDIEDNAPLRRGQTTSHLIFGVPSTINTANYMYFRAMQLVSQLTTKEPLYHNLITIFNEELINLHRGQGLDIYWRDFLPEIIPTQEMYLNMVMNKTGGLFRLTLRLMEALSPSSHHGHSLVPFINLLGIIYQIRDDYLNLKDFQMSSEKGFAEDITEGKLSFPIVHALNFTKTKGQTEQHNEILRILLLRTSDKDIKLKLIQILEFDTNSLAYTKNFINQLVNMIKNDNENKYLPDLASHSDTATNLHDELLYIIDHLSEL | 3.2 µM | –
2 | Geranylgeranyl pyrophosphate synthase (Homo sapiens), O95749 (protein) MEKTQETVQRILLEPYKYLLQLPGKQVRTKLSQAFNHWLKVPEDKLQIIIEVTEMLHNASLLIDDIEDNSKLRRGFPVAHSIYGIPSVINSANYVYFLGLEKVLTLDHPDAVKLFTRQLLELHQGQGLDIYWRDNYTCPTEEEYKAMVLQKTGGLFGLAVGLMQLFSDYKEDLKPLLNTLGLFFQIRDDYANLHSKEYSENKSFCEDLTEGKFSFPTIHAIWSRPESTQVQNILRQRTENIDIKKYCVHYLEDVGSFEYTRNTLKELEAKAYKQIDARGGNPELVALVKHLSKMFKEENE | – | 0.71 µM
